{"source": "patent US10494657B2", "about": "“In vitro production of cyclic peptides” (The University Court of the University of Aberdeen, priority 2012, dated 2019)", "molecules": {"B1": {"name": "PatGmac K594D (protein)", "sequence (as listed by the source)": "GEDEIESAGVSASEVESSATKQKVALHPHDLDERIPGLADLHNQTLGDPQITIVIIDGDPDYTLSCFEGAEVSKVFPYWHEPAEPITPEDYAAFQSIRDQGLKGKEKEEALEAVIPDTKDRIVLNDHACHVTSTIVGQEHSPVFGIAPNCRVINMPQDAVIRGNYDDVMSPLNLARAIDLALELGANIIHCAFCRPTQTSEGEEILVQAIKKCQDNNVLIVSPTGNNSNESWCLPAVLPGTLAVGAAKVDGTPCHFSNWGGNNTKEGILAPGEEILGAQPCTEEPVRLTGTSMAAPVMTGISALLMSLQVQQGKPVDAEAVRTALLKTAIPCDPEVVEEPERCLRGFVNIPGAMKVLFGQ", "chain": "GEDEIESAGVSASEVESSATKQKVALHPHDLDERIPGLADLHNQTLGDPQITIVIIDGDPDYTLSCFEGAEVSKVFPYWHEPAEPITPEDYAAFQSIRDQGLDGKEKEEALEAVIPDTKDRIVLNDHACHVTSTIVGQEHSPVFGIAPNCRVINMPQDAVIRGNYDDVMSPLNLARAIDLALELGANIIHCAFCRPTQTSEGEEILVQAIKKCQDNNVLIVSPTGNNSNESWCLPAVLPGTLAVGAAKVDGTPCHFSNWGGNNTKEGILAPGEEILGAQPCTEEPVRLTGTSMAAPVMTGISALLMSLQVQQGKPVDAEAVRTALLKTAIPCDPEVVEEPERCLRGFVNIPGAMKVLFGQ"}, "B2": {"name": "PatGmac K598D (protein)", "chain": "GEDEIESAGVSASEVESSATKQKVALHPHDLDERIPGLADLHNQTLGDPQITIVIIDGDPDYTLSCFEGAEVSKVFPYWHEPAEPITPEDYAAFQSIRDQGLKGKEDEEALEAVIPDTKDRIVLNDHACHVTSTIVGQEHSPVFGIAPNCRVINMPQDAVIRGNYDDVMSPLNLARAIDLALELGANIIHCAFCRPTQTSEGEEILVQAIKKCQDNNVLIVSPTGNNSNESWCLPAVLPGTLAVGAAKVDGTPCHFSNWGGNNTKEGILAPGEEILGAQPCTEEPVRLTGTSMAAPVMTGISALLMSLQVQQGKPVDAEAVRTALLKTAIPCDPEVVEEPERCLRGFVNIPGAMKVLFGQ"}, "B3": {"name": "PatGmac R589D K594D K598D (protein)", "chain": "GEDEIESAGVSASEVESSATKQKVALHPHDLDERIPGLADLHNQTLGDPQITIVIIDGDPDYTLSCFEGAEVSKVFPYWHEPAEPITPEDYAAFQSIDDQGLDGKEDEEALEAVIPDTKDRIVLNDHACHVTSTIVGQEHSPVFGIAPNCRVINMPQDAVIRGNYDDVMSPLNLARAIDLALELGANIIHCAFCRPTQTSEGEEILVQAIKKCQDNNVLIVSPTGNNSNESWCLPAVLPGTLAVGAAKVDGTPCHFSNWGGNNTKEGILAPGEEILGAQPCTEEPVRLTGTSMAAPVMTGISALLMSLQVQQGKPVDAEAVRTALLKTAIPCDPEVVEEPERCLRGFVNIPGAMKVLFGQ"}, "B4": {"name": "H618A: site-directed catalytic triad mutant of PatGmac (inactive mutant) (protein)", "chain": "GEDEIESAGVSASEVESSATKQKVALHPHDLDERIPGLADLHNQTLGDPQITIVIIDGDPDYTLSCFEGAEVSKVFPYWHEPAEPITPEDYAAFQSIRDQGLKGKEKEEALEAVIPDTKDRIVLNDAACHVTSTIVGQEHSPVFGIAPNCRVINMPQDAVIRGNYDDVMSPLNLARAIDLALELGANIIHCAFCRPTQTSEGEEILVQAIKKCQDNNVLIVSPTGNNSNESWCLPAVLPGTLAVGAAKVDGTPCHFSNWGGNNTKEGILAPGEEILGAQPCTEEPVRLTGTSMAAPVMTGISALLMSLQVQQGKPVDAEAVRTALLKTAIPCDPEVVEEPERCLRGFVNIPGAMKVLFGQ"}, "B5": {"name": "PatGmacΔ2 (protein)", "chain": "GEDEIESAGVSASEVESSATKQKVALHPHDLDERIPGLADLHNQTLGDPQITIVIIDGDPDYTLSCFEGAEVSKVFPYWHEPAEPILNDHACHVTSTIVGQEHSPVFGIAPNCRVINMPQDAVIRGNYDDVMSPLNLARAIDLALELGANIIHCAFCRPTQTSEGEEILVQAIKKCQDNNVLIVSPTGNNSNESWCLPAVLPGTLAVGAAKVDGTPCHFSNWGGNNTKEGILAPGEEILGAQPCTEEPVRLTGTSMAAPVMTGISALLMSLQVQQGKPVDAEAVRTALLKTAIPCDPEVVEEPERCLRGFVNIPGAMKVLFGQ"}, "B6": {"name": "PatGmacΔ1 (protein)", "chain": "GEDEIESAGVSASEVESSATKQKVALHPHDLDERIPGLADLHNQTLGDPQITIVIIDGDPDYTLSCFEGAEVSKVFPYWHEPAEPITKDRIVLNDHACHVTSTIVGQEHSPVFGIAPNCRVINMPQDAVIRGNYDDVMSPLNLARAIDLALELGANIIHCAFCRPTQTSEGEEILVQAIKKCQDNNVLIVSPTGNNSNESWCLPAVLPGTLAVGAAKVDGTPCHFSNWGGNNTKEGILAPGEEILGAQPCTEEPVRLTGTSMAAPVMTGISALLMSLQVQQGKPVDAEAVRTALLKTAIPCDPEVVEEPERCLRGFVNIPGAMKVLFGQ"}}, "key": {"[1]": {"test_system": "PatGmac", "assay": "Macrocyclization of substrate peptides by PatGmac", "type": "biochemical, Prochloron sp.", "method": "(§1) For other macrocyclization reactions, 100 μM peptide (e.g. VGAGIGFPAYDG (SEQ ID NO: 68), VGAGIGFPAYRG (SEQ ID NO: 69), or GVAGIGFPAYRG (SEQ ID NO: 84)) was incubated with 20 μM enzyme in a range of buffers for 24 h at 37° C. (see FIGS. 1 to 3).\nThe VPAPIPFPAYDG (SEQ ID NO: 85) peptide was chosen to match the residues equivalent to P8-P4′, the eight-residue cassette and four C-terminal residue macrocyclization signature.\n(§2) PatGmac K598D produced cyclo[VGAGIGFP] with only 8% linear product, at a rate over an order of magnitude faster than wild-type PatGmac with VGAGIGFPAYDG (SEQ ID NO: 68) (FIGS. 2 and 3)."}, "[2]": {"test_system": "[…]", "assay": "Macrocyclization reaction, final product ratios by LC-ESI MS ion counts", "type": "biochemical", "settings": "for Cyclic ion count (%) (M + H = 699) / Linear ion count (%) (M + H = 717) / Unprocessed ion count (%) (M + H = 1123): 100 μM peptide, 50 μM enzyme, 120 h at 37° C.", "method": "For macrocyclization reactions comparing final product ratios after substrate depletion, 100 μM peptide (VGAGIGFPAYDG) (SEQ ID NO: 68) was incubated with 50 μM enzyme in 150 mM NaCl, 10 mM HEPES pH 8, 1 mM TCEP for 120 h at 37° C. Samples were analyzed by ESI or MALDI MS (LCT, Micromass or 4800 MALDI TOF/TOF Analyser, ABSciex).\nLC-MS was performed using a Phenomenex Sunfire C18 column (4.6 mm×150 mm). Solvent A was H2O containing 0.1% formic acid and solvent B was MeOH containing 0.1% formic acid. Gradient: 0-2 min 10% B; 2-22 min 10% B to 100% B; 22-27 min 100% B; 27-30 min 100% B to 10% B. High resolution mass spectral data were obtained from a Thermo Instruments MS system (LTQ XL/LTQ Orbitrap Discovery) coupled to a Thermo Instruments HPLC system (Accela PDA detector, Accela PDA autosampler and Accela Pump). The following conditions were used: capillary voltage 45 V, capillary temperature 320° C., auxiliary gas flow rate 10-20 arbitrary units, sheath gas flow rate 40-50 arbitrary units, spray voltage 4.5 kV, mass range 100-2000 amu (maximum resolution 30000).\nThe peptide VGAGIGFPAYDG (SEQ ID NO: 68) was used as a substrate for PatGmac in biochemical assays (FIG. 4C[[c]]). The ratio of macrocyclized to linear product using this substrate peptide was determined by ion counts obtained from liquid chromatography-electrospray ionization mass spectrometry (LC-ESI MS)."}, "[3]": {"test_system": "[…]", "assay": "Macrocyclization of substrate with modified recognition sequence (Asp to Arg)", "type": "biochemical", "method": "as §1, §2"}, "[4]": {"test_system": "[…]", "assay": "Macrocyclization reaction, final product ratios by LC-ESI MS ion counts", "type": "biochemical"}}}
{"molecule": "VPAPIPFPAYDG [substrate mimic peptide, prolines mimic heterocycles]", "values": [{"measurement": "macrocyclization of the substrate by PatGmac (rate)", "setting": "[1]", "value": "can in fact be macrocyclized by PatGmac (albeit slowly)"}]}
{"molecule": "VGAGIGFPAYRG", "values": [{"measurement": "macrocyclization of the substrate by PatGmac (rate)", "setting": "[1]", "value": "an order of magnitude faster than GVAGIGFPAYRG"}]}
{"molecule": "B1", "values": [{"measurement": "product formed (macrocyclized vs linear)", "setting": "[2]", "value": "approximately one third of the product was macrocyclized"}, {"measurement": "Cyclic ion count (%) (M + H = 699)", "setting": "[2]", "value": 29, "unit": "%"}, {"measurement": "Linear ion count (%) (M + H = 717)", "setting": "[2]", "value": 71, "unit": "%"}, {"measurement": "Unprocessed ion count (%) (M + H = 1123)", "setting": "[2]", "value": 0, "unit": "%"}, {"measurement": "ratio of macrocyclized and linear products with VGAGIGFPAYRG", "setting": "[3]", "value": "equal amounts of macrocyclized and linear products"}, {"measurement": "reaction rate with VGAGIGFPAYRG", "setting": "[3]", "value": "reacted extremely slowly"}, {"measurement": "substrate consumption rate relative to native protein", "setting": "[4]", "value": "approximately the rate of native protein"}]}
{"molecule": "B2", "values": [{"measurement": "product formed (macrocyclized vs linear)", "setting": "[2]", "value": "only linear VGAGIGFP"}, {"measurement": "Cyclic ion count (%) (M + H = 699)", "setting": "[2]", "value": 0, "unit": "%"}, {"measurement": "Linear ion count (%) (M + H = 717)", "setting": "[2]", "value": 100, "unit": "%"}, {"measurement": "Unprocessed ion count (%) (M + H = 1123)", "setting": "[2]", "value": 0, "unit": "%"}, {"measurement": "linear product", "setting": "[3]", "value": 8, "unit": "%"}, {"measurement": "reaction rate with VGAGIGFPAYRG", "setting": "[3]", "value": "over an order of magnitude faster than wild-type PatGmac with […]"}, {"measurement": "substrate consumption rate relative to native protein", "setting": "[4]", "value": "approximately the rate of native protein"}]}
{"molecule": "B3", "values": [{"measurement": "product formed (macrocyclized vs linear)", "setting": "[2]", "value": "only produced linear substrate"}, {"measurement": "Cyclic ion count (%) (M + H = 699)", "setting": "[2]", "value": 0, "unit": "%"}, {"measurement": "Linear ion count (%) (M + H = 717)", "setting": "[2]", "value": 6, "unit": "%"}, {"measurement": "Unprocessed ion count (%) (M + H = 1123)", "setting": "[2]", "value": 94, "unit": "%"}, {"measurement": "ratio of macrocyclized and linear products with VGAGIGFPAYRG", "setting": "[3]", "value": "equal amounts of macrocyclized and linear products"}, {"measurement": "reaction rate with VGAGIGFPAYRG", "setting": "[3]", "value": "reacted extremely slowly"}, {"measurement": "substrate consumption rate relative to native protein", "setting": "[4]", "value": "substantially slower"}]}
{"molecule": "B4", "values": [{"measurement": "product formed (macrocyclized vs linear)", "setting": "[2]", "value": "no detectable reaction"}]}
{"molecule": "B5", "values": [{"measurement": "product formed (macrocyclized vs linear)", "setting": "[2]", "value": "only linear VGAGIGFP"}, {"measurement": "Cyclic ion count (%) (M + H = 699)", "setting": "[2]", "value": 0, "unit": "%"}, {"measurement": "Linear ion count (%) (M + H = 717)", "setting": "[2]", "value": ">99", "unit": "%"}, {"measurement": "Unprocessed ion count (%) (M + H = 1123)", "setting": "[2]", "value": "<1", "unit": "%"}, {"measurement": "substrate consumption rate relative to native protein", "setting": "[4]", "value": "approximately the rate of native protein"}]}
{"molecule": "B6", "values": [{"measurement": "product formed (macrocyclized vs linear)", "setting": "[2]", "value": "only linear VGAGIGFP"}, {"measurement": "Cyclic ion count (%) (M + H = 699)", "setting": "[2]", "value": 0, "unit": "%"}, {"measurement": "Linear ion count (%) (M + H = 717)", "setting": "[2]", "value": 92, "unit": "%"}, {"measurement": "Unprocessed ion count (%) (M + H = 1123)", "setting": "[2]", "value": 8, "unit": "%"}, {"measurement": "substrate consumption rate relative to native protein", "setting": "[4]", "value": "approximately the rate of native protein"}]}
